Experimental findings from patent EP3919091A1 are described below.

This test addresses PIF6-SnoopCatcher (SnoopCatcher-mCherry-PIF6(A. thaliana, amino acids: 1-100, Cys9Ser, Cys10Ser)-His6), coupled to 8-arm PEG-SnoopTag (A. thaliana) (UniProt Q8L5W7). In words: cell-based or functional assay.
Chain of UniProt Q8L5W7 (Q8L5W7 other isoform, or with tags, fused parts or gaps C10S C10S): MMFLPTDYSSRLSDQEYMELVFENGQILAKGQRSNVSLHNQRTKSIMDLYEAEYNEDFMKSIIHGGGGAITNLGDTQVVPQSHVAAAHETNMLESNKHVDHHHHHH

The substance “PhyB-SpyCatcher (PhyB(A. thaliana, amino acids: 1-651)-SpyCatcher-His6), coupled to 8-arm PEG-SpyTag (from UniProt P14713 1-651)” registered a reversible cross-linking and dissolution cycles (small amplitude oscillatory shear rheology, 660 nm / 740 nm) of 5 times.
